# Measurements published in patent publication US20250109206A1 (CENTESSA PHARMACEUTICALS UK, published 2025).
# Residue numbers refer to the chain shown, from its start. Names and notes keep the numbering of the source.
# B1: Anti-PD-L1 Fab mut-03 (S104W) (Fab, V domains shown)
# VH: QVQLVQSGAEVKKPGSSVKVSCKTSGDTFSTYAISWVRQAPGQGLEWMGGIIPIFGKAHYAQKFQGRVTITADESTSTAYMELSSLRSEDTAVYFCARKFHFVWGSPFGMDVWGQGTTVTVSS
# VL: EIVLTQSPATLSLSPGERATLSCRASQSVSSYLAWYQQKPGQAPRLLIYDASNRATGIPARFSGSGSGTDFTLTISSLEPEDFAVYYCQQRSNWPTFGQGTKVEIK
# notes: Fab format; VH variant with WT VL; constant domains of the Fab not specified; also called mut-3
# B2: Anti-PD-L1 Fab mut-27 (K57D) (Fab, V domains shown)
# VH: B1 VH with K57D, W104S
# VL: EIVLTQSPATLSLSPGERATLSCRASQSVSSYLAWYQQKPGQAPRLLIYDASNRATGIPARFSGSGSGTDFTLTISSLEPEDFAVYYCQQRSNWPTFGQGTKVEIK
# notes: Fab format; VH variant with WT VL; constant domains of the Fab not specified
# B3: Anti-PD-L1 Fab mut-07 (I54W) (Fab, V domains shown)
# VH: B1 VH with I54W, W104S
# VL: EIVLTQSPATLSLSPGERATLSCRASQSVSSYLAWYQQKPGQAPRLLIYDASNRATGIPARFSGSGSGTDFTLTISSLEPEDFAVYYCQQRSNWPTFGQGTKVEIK
# notes: Fab format; VH variant with WT VL; constant domains of the Fab not specified; also called mut-7
# B4: Anti-PD-L1 Fab mut-23 (G56H) (Fab, V domains shown)
# VH: B1 VH with G56H, W104S
# VL: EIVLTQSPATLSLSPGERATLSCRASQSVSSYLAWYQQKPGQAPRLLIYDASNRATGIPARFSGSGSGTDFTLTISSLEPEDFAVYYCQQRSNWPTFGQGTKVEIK
# notes: as for B2
# B5: Anti-PD-L1 Fab mut-04 (I54K) (Fab, V domains shown)
# VH: B1 VH with I54K, W104S
# VL: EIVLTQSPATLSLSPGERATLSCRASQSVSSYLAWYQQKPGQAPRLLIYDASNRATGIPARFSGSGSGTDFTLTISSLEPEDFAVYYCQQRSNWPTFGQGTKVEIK
# notes: Fab format; VH variant with WT VL; constant domains of the Fab not specified; also called mut-4
# B6: Anti-PD-L1 Fab mut-47 (T31R) (Fab, V domains shown)
# VH: B1 VH with T31R, W104S
# VL: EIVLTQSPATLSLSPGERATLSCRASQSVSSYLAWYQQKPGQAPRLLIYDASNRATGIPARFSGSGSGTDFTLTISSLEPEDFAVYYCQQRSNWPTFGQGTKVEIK
# notes: as for B2
# B7: Anti-PD-L1 Fab mut-43 (G56Q) (Fab, V domains shown)
# VH: B1 VH with G56Q, W104S
# VL: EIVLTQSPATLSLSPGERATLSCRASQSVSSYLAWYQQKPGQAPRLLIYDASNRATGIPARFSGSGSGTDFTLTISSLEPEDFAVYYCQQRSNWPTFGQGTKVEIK
# notes: as for B2
# B8: Anti-PD-L1 Fab mut-49 (G56N) (Fab, V domains shown)
# VH: B1 VH with G56N, W104S
# VL: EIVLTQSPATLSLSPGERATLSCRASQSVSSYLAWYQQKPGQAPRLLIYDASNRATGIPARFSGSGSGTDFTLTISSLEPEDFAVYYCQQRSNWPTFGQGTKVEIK
# notes: as for B2
# B9: Anti-PD-L1 Fab mut-52 (S104R, G56Q) (Fab, V domains shown)
# VH: B1 VH with G56Q, W104R
# VL: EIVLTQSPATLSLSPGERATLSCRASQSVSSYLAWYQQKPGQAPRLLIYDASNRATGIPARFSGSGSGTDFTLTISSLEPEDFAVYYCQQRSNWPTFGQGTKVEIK
# notes: as for B2
# B10: Anti-PD-L1 Fab mut-51 (S104R, G56Q, T31Q) (Fab, V domains shown)
# VH: B1 VH with T31Q, G56Q, W104R
# VL: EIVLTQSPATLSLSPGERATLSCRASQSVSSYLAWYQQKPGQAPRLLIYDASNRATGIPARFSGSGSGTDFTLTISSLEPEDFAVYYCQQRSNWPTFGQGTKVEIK
# notes: as for B2
# B11: Anti-PD-L1 Fab mut-14 (S104D) (Fab, V domains shown)
# VH: B1 VH with W104D
# VL: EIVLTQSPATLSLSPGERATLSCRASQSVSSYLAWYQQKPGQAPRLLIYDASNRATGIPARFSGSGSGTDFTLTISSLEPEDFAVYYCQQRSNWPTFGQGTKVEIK
# notes: as for B2
# B12: Anti-PD-L1 Fab mut-46 (I54R) (Fab, V domains shown)
# VH: B1 VH with I54R, W104S
# VL: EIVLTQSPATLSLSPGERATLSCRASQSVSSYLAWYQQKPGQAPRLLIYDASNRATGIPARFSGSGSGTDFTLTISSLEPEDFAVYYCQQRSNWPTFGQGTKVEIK
# notes: as for B2
# B13: Anti-PD-L1 Fab mut-08 (K57R) (Fab, V domains shown)
# VH: B1 VH with K57R, W104S
# VL: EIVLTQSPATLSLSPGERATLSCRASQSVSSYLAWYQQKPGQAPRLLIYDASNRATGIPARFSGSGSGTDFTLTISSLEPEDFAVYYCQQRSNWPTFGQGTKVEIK
# notes: Fab format; VH variant with WT VL; constant domains of the Fab not specified; also called mut-8
# B14: Anti-PD-L1 Fab mut-53 (S104R, T31Q) (Fab, V domains shown)
# VH: B1 VH with T31Q, W104R
# VL: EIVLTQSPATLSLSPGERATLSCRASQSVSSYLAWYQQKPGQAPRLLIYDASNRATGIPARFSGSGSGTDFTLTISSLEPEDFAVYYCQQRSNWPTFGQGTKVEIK
# notes: as for B2
# B15: Anti-PD-L1 Fab mut-50 (Q62E) (Fab, V domains shown)
# VH: B1 VH with Q62E, W104S
# VL: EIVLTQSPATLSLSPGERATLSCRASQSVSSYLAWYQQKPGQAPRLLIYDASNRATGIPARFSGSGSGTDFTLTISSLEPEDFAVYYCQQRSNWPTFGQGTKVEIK
# notes: as for B2
# B16: Anti-PD-L1 Fab mut-15 (K57W) (Fab, V domains shown)
# VH: B1 VH with K57W, W104S
# VL: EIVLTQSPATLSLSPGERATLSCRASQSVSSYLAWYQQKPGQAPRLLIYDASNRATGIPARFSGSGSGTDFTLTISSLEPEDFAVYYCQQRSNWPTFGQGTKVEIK
# notes: as for B2
# B17: Anti-PD-L1 Fab mut-44 (I52F) (Fab, V domains shown)
# VH: B1 VH with I52F, W104S
# VL: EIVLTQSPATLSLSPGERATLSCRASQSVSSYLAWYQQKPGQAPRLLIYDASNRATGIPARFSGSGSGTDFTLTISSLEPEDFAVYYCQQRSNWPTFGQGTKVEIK
# notes: as for B2
# B18: Anti-PD-L1 Fab mut-54 (G56Q, T31Q) (Fab, V domains shown)
# VH: B1 VH with T31Q, G56Q, W104S
# VL: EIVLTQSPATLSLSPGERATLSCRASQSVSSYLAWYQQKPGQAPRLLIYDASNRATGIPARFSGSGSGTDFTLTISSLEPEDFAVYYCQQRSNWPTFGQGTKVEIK
# notes: as for B2
# B19: Anti-PD-L1 Fab mut-06 (S104R) (Fab, V domains shown)
# VH: B1 VH with W104R
# VL: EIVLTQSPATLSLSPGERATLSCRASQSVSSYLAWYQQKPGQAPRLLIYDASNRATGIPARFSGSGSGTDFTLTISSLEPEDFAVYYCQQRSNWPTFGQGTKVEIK
# notes: Fab format; VH variant with WT VL; constant domains of the Fab not specified; also called mut-6; Mut-6
# B20: Anti-PD-L1 Fab mut-42 (I54Q) (Fab, V domains shown)
# VH: B1 VH with I54Q, W104S
# VL: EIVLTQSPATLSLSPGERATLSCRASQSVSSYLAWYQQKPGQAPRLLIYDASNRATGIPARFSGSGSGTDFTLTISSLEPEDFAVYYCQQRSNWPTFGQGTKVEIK
# notes: as for B2
# B21: Anti-PD-L1 Fab mut-39 (K57F) (Fab, V domains shown)
# VH: B1 VH with K57F, W104S
# VL: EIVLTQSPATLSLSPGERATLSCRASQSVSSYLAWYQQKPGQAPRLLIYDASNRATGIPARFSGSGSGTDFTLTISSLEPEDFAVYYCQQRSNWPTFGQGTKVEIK
# notes: as for B2
# B22: Anti-PD-L1 Fab mut-34 (K57M) (Fab, V domains shown)
# VH: B1 VH with K57M, W104S
# VL: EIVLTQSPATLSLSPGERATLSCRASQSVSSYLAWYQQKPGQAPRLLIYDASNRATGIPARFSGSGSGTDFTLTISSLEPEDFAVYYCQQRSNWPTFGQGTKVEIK
# notes: as for B2
# B23: Anti-PD-L1 Fab mut-28 (S104N) (Fab, V domains shown)
# VH: B1 VH with W104N
# VL: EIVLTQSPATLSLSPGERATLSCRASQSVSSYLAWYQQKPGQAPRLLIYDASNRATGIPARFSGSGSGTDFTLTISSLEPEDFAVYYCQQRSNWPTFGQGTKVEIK
# notes: as for B2
# B24: Anti-PD-L1 Fab mut-48 (T31Q) (Fab, V domains shown)
# VH: B1 VH with T31Q, W104S
# VL: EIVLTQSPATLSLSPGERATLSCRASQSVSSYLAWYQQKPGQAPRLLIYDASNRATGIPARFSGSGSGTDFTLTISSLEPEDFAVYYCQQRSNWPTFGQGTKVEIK
# notes: as for B2
# B25: Anti-PD-L1 Fab mut-20 (I54Y) (Fab, V domains shown)
# VH: B1 VH with I54Y, W104S
# VL: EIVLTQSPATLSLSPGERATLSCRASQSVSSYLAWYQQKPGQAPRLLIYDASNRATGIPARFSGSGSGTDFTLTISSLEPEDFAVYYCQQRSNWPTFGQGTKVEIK
# notes: as for B2
# B26: Anti-PD-L1 Fab mut-22 (A33H) (Fab, V domains shown)
# VH: B1 VH with A33H, W104S
# VL: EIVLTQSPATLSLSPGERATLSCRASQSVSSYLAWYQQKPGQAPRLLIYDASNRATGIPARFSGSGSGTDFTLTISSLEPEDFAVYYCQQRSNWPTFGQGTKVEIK
# notes: as for B2
# B27: LB218 (intact) (bispecific antibody, human IgG1, kappa, lambda)
# heavy: not shown
# light: not shown
# chain: SCPPCPAPEAAGAPSVFLFPPKPKDTLMISRTPEVTCVVVDVSHEDPEVKFNWYVDGVEVHNAKTKPREEQYNSTYRVVSVLTVLHQDWLNGKEYKCKVSNKALPAPIEKTISKAKGQPREPQVCTLPPSRDELTKNQVSLSCAVKGFYPSDIAVEWESNGQPENNYKTTPPVLDSDGSFFLVSKLTVDKSRWQQGNVFSCSVMHEALHNHYTQKSLSLSPGK
# notes: Asymmetric LockBody, uncleaved; also called intact LB218
# B28: LB218 after incubation with MMP12 (bispecific antibody)
# heavy: not shown
# light: not shown
# chain: B27 chain
# notes: Digest of LB218 with human MMP12; a mixture of products; also called MMP12 treated LB218; digested LB218
# B29: LB213 (intact) (bispecific antibody, human IgG1, kappa, lambda)
# heavy: not shown
# light: not shown
# chain: B27 chain
# notes: Asymmetric LockBody, uncleaved; also called intact LB213
# B30: LB213 after incubation with MMP12 (bispecific antibody)
# heavy: not shown
# light: not shown
# chain: B27 chain
# notes: Digest of LB213 with human MMP12; a mixture of products; also called MMP12 treated LB213; digested LB213
# B31: CD3-IgG-001 (antibody, V domains shown)
# VH: EVQLVESGGGLVQPGGSLRLSCAASGFTFNTYAMNWVRQAPGKGLEWVARIRSKYNNYATYYADSVKDRFTISRDDSQSILYLQMNSLKTEDTAVYYCVRHGNFGNSYVSWFAYWGQGTLVTVSS
# VL: QAVVTQEPSLTVSPGGTVTLTCRSSTGAVTTSNYANWVQQKPDHLPRALIGGTNKRAPGTPARFSGSLLGDKAALTLSGVQPEDEAEYYCALWYSNLWVFGGGTKLTVL
# B32: mouse SP34 IgG (antibody, V domains shown)
# VH: B31 VH with G15K, R19K, S87N, V95M
# VL: QAVVTQESALTTSPGETVTLTCRSSTGAVTTSNYANWVQEKPDHLFTGLIGGTNKRAPGVPARFSGSLIGDKAALTITGAQTEDEAIYFCALWYSNLWVFGGGTKLTVL
# B33: CD3-IgG-002 (antibody, V domains shown)
# VH: B31 VH with A49G, D68G, Q78K, S79N, I80S, V99A
# VL: B31 VL with T60V, L77I, V80A, E87I
# How the values were obtained:
# [1] = target: T1, Cyno PD-L1 (cynomolgus, UniProt Q9NZQ7 19-127 (human entry), limits assumed); assay: SPR, Fab
# T1 construct: also called cynomolgus PD-L1
# T1 chain: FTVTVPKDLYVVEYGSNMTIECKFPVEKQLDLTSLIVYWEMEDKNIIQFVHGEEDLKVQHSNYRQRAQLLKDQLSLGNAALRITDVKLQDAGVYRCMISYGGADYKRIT
# [2] = target: T2, Human PD-L1 (human, UniProt Q9NZQ7 19-127, limits assumed); assay: SPR, Fab
# T2 construct: also called huPD-L1; hPD-L1
# [3] = target: T2, Human PD-L1; assay: ELISA on plate-coated human PD-L1, corrected absorbance 450-570 nm
# Procedure: For ELISA binding assays, 384 well or 96 well plates were coated with […] and incubated overnight at 4° C., protected from light. Plates were washed twice with PBS/0.05% Tween 20 before blocking with block buffer (3% milk protein in PBS) for 1 hour at room temperature. Next, test agent or controls were loaded and incubated for 1 hour at room temperature. Plates were then washed three times with PBS/0.05% Tween 20. Finally, HRP conjugated secondary antibody, diluted 1/5,000 in block buffer, was added and incubated for 1 hour at room temperature. Plates were again washed three times with PBS/0.05% Tween before addition of TMB substrate and incubation for 6 minutes at room temperature. Subsequently, the reaction was stopped with stop solution. Absorbance was read at 450 nm and 570 nm. Absorbance at 570 nm was subtracted from absorbance at 450 nm for each plate.
# [4] = target: T2, Human PD-L1; assay: ELISA on plate-coated human PD-L1, sample pre-incubated with MMP12 for 60 min
# [5] = target: T2, Human PD-L1; assay: ELISA on plate-coated human PD-L1, sample pre-incubated with MMP12 for 30 min
# [6] = target: T2, Human PD-L1; assay: ELISA on plate-coated human PD-L1, sample pre-incubated with MMP12 for 15 min
# [7] = target: T2, Human PD-L1; assay: ELISA on plate-coated human PD-L1, sample pre-incubated with MMP12 for 5 min
# [8] = target: T2, Human PD-L1; assay: ELISA on plate-coated human PD-L1, sample pre-incubated with MMP12 for 15 min; remark: listed apart in the source
# [9] = target: T2, Human PD-L1; assay: ELISA on plate-coated human PD-L1, sample pre-incubated with MMP12 for 60 min; remark: listed apart in the source
# [10] = target: T2, Human PD-L1; assay: ELISA on plate-coated human PD-L1, sample pre-incubated with MMP12 for 5 min; remark: listed apart in the source
# [11] = target: T2, Human PD-L1; assay: ELISA on plate-coated human PD-L1, sample pre-incubated with MMP12 for 30 min; remark: listed apart in the source
# [12] = target: human CD3 on Jurkat cells (human, UniProt P07766 23-207); assay: cell-based or functional assay
# Sequence of human CD3 on Jurkat cells (P07766 23-207): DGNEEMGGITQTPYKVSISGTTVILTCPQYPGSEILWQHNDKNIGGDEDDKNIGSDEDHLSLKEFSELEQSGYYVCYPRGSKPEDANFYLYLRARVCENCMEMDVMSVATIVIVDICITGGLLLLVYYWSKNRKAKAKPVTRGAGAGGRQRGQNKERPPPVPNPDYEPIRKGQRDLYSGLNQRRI
Binder,Kd [1] [nM],Kd [2] [nM],other results
B1,13.6,1.1,
B2,,5.58,binding result [1]: no binding
B3,143,4.25,
B4,3.02,0.195,
B5,10.8,0.857,
B6,9.32,0.594,
B7,2.73,0.204,
B8,3.53,0.224,
B9,0.298,0.0214,
B10,0.18,0.0157,
B11,29.3,3.36,
B12,12.7,1.04,
B13,6.48,0.489,
B14,0.288,0.0217,
B15,4.82,0.124,
B16,10.5,1.69,
B17,6.85,0.542,

Binder,Kd [1] [nM],Kd [2] [nM],other results
B18,0.631,0.0722,
B19,2.86,0.0857,
B20,5.98,3.99,
B21,3.96,1.54,
B22,5.82,3.58,
B23,5.51,0.501,
B24,3.24,0.249,
B25,15.9,0.875,
B26,20,1.84,
B27,,,EC50 (read off the curve) [3]: ~0.2 nM
B28,,,EC50 (read off the curve) [4]: ~0.7 nM; EC50 (read off the curve) [5]: ~0.5 nM; EC50 (read off the curve) [6]: ~0.2 nM; EC50 (read off the curve) [7]: ~0.1 nM
B29,,,EC50 (read off the curve) [3]: ~0.2 nM
B30,,,EC50 (read off the curve) [8]: ~0.2 nM; EC50 (read off the curve) [9]: ~0.5 nM; EC50 (read off the curve) [10]: ~0.2 nM; EC50 (read off the curve) [11]: ~0.3 nM
B31,,,"EC50, CD3 activation signal in Jurkat reporter cell line (luciferase) [12]: 0.2 nM"
B32,,,"EC50, CD3 activation signal in Jurkat reporter cell line (luciferase) [12]: 0.2 nM"
B33,,,"EC50, CD3 activation signal in Jurkat reporter cell line (luciferase) [12]: 0.9 nM; fold difference of apparent EC50 against SP34 / Anti-CD3-IgG-001, Jurkat reporter [12]: ~5 fold"
